Test results from PMC9146559, “Recombinant Integrin β1 Signal Peptide Blocks Gliosis Induced by Aβ Oligomers” (International Journal of Molecular Sciences, 2022).

Target: T1, amyloid β protein fragment 1–42 (synthetic Aβ peptide, oligomer preparation) (UniProt P05067 672-713)
T1 construct: amyloid beta 1-42, the cut product of the amyloid precursor protein; One preparation that holds monomeric and oligomeric forms, which are seen as separate bands on non-reducing SDS-PAGE; also called Aβ1–42; Aβ oligomers; source: synthetic peptide; oligomers prepared from hexafluoroisopropanol film, DMSO, Hams F-12, 4 °C for 24 h, supernatant after 14,000 x g
Test: pull-down; glutathione beads coated with 500 ng GST0 or GST fusion protein, incubated with 100 pM Aβ oligomers in 50 mM Tris-HCl pH7.5, 5 mM MgCl2, 20 mM KCl, 500 µg/mL BSA for 1 h at RT; washed, eluted under non-reducing conditions, SDS-PAGE and Western blot with 6E10
Details: both partners purified

binding result: binds
B1: GST-Rs recombinant fusion protein (integrin β1 signal peptide, amino acids 1–20) (domain or fragment, UniProt P05556 1-20, looked up)
chain: MNLQPIFWIGLISSVCCVFA
notes: signal peptide in the construct; integrin β1 (ITGβ1) amino acids 1-20, PCR from pCMV6-XL5-ITGB1 (Origene); The fragment was cloned through EcoRI sites, so linker residues from the vector are likely; The printed forward primer (ATG AAT TTA CAA CC) encodes M-N-L-Q-P, which fits the human cDNA; also called Rs peptide; recombinant integrin β1 signal peptide
